Reference: US20090209453A1 (UNIVERSITY OF MEDICINE AND DENTISTRY OF NEW JERSEY, published 2009)

Experiments:
rat LH receptor [1] = molecular target: T1, rat LH receptor (rat, UniProt P16235 27-700); test: 125I-hCG competition on rat LH receptors
T1 construct: whole, on cells; CHO cells engineered to (over)express the rat LH receptor; also called rat lutropin receptor

rat LH receptor [2] = molecular target: T1, rat LH receptor; test: competition with radioiodinated hCG for rat LH receptors

T1 sequence (P16235 27-700): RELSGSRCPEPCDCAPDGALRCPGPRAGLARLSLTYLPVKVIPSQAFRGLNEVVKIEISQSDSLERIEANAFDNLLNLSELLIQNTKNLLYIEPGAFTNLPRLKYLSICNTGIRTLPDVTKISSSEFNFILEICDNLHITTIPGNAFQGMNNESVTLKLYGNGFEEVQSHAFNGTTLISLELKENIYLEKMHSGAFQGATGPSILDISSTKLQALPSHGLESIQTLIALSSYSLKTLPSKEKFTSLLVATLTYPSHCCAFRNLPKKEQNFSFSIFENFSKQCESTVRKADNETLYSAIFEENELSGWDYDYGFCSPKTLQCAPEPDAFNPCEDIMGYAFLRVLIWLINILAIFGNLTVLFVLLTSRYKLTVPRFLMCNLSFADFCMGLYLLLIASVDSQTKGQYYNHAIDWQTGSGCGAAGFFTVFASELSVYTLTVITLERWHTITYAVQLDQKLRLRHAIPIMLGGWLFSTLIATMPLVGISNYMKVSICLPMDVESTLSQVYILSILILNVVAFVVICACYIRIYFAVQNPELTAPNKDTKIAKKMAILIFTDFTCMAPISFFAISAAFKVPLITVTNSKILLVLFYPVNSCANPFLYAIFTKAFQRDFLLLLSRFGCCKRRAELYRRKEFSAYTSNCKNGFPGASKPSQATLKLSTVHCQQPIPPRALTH

Row | binding result (rat LH receptor [1]) | binding result (rat LH receptor [2]) | Binder
1 | binds |  | pMB2472+pMB2673 heterodimer (crosslink α86-β108) (ligand, Intersubunit disulfide between alpha Cys86 and beta Cys108 (the beta C-terminus). N-linked glycans remain, except at alpha position 52 (N52D). Beta Cys26 is free., The text says that pMB1244 or pMB2472 was the α-subunit construct; also called pMB2472 and pMB2673) alpha: not shown beta: SKEPLRPRCRPINATLAVEKEGCPVCITVNTTICAGYCPTMTRVLQGVLPALPQVVCNYRDVRFESIRLPGCPRGVNPVVSYAVALSCQCALCRRSTTDCGGPKDHPC
2 |  | binds | pRM917+pMB2545 crosslinked heterodimer (ligand, Potential intersubunit disulfides α5-β8 and α86-β102; N-linked glycans on both subunits (none at α52)., Potential disulfides α5-β8 and α86-β102; also called pRM917 and pMB2545; copies: 1 + 1) alpha: not shown beta: SRPCCRPINATLAVEKEGCPVAITVNTTICAGYCPTMTRVLQGVLPALPQVVCNYRDVRFESIRLPGCPRGVNPVVSYAVALSCQCALCRRSTTDCGC
3 | binds |  | pMB2472+pMB2672 heterodimer (crosslink α86-β106) (ligand, Intersubunit disulfide between alpha Cys86 and beta Cys106 (the beta C-terminus). N-linked glycans remain, except at alpha position 52 (N52D). Beta Cys26 is free., The text says that pMB1244 or pMB2472 was the α-subunit construct; also called pMB2472 and pMB2672) alpha: not shown beta: SKEPLRPRCRPINATLAVEKEGCPVCITVNTTICAGYCPTMTRVLQGVLPALPQVVCNYRDVRFESIRLPGCPRGVNPVVSYAVALSCQCALCRRSTTDCGGPKDC
